Experimental data reported in the nanobody polyreactivity screen of Harvey et al. (2022).

assay: yeast display, Sf9 membrane polyspecificity reagent, FACS + sequencing; frameworks hold sequencing errors
In short: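 Galactose induction of a Saccharomyces cerevisiae BJ5465 synthetic nanobody display library ran 36–48 hours. The cells were then stained for 1 hour at 4 °C with 10% biotinylated, detergent-solubilized Sf9 membrane reagent, pulled down on streptavidin microbeads and FACS-sorted into low and high (top ~1%) gates on expression and reagent-binding fluorescence. Labels for polyreactivity follow the gate of origin.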

Row | Sequence | polyreactivity (PSR sort gate)
1 | QVQLVESGGCLVQAGGSLRLTCAASGRTFYWNTMGWYRQAPGKERELVAAISSSGDSTYYADSVKGRFTISRDNAKNTVYLQMNCLKPEDTAVYYCAAGRRGTSTTWGQGSQVTVSS | high polyreactivity
2 | QVQLVESGGCLVQAGGSLRYSCAASGRTFRYYGMGWYRQAPGKERELVAAISWSGGSTYYADSVKGRFTISRDNAKNTVYLQMNSLKPEDTAVYYCKVAFHWQRFHHKSAAYDYWGQGTQVTVSS | high polyreactivity
3 | QVQLVESGGCLVQAGGSLSLSCAASGRIFGAYAMGWYRQAPGTERELVAAISSGGSTYYADSVKGRFTISRDNAKNTVYLQMNSLKPEDTAVYYCAASSGNGYGYWGQGTQVTVSS | high polyreactivity
4 | QVQLVESGGCLVQAGGSLSLSCAHSGGNFTFYAMVWYTQAPGKERELVATINWSGGSTYYADSVKGRFTISRDNAKITVYLQMNSLKPADTAVYYCNAAWPYKSVEYWGHGTQVTVSS | low polyreactivity
5 | QVQLVESGGCLVQAGGSRSLSCAASGSIFYRNAMGWYRQAPGKERELVAAIRGSDGSTYYADSVKGRFTISRDNGKNTVYLQMNSLKPEDTAVYSCNADTPTWPLDYWGQGTQVTVSS | low polyreactivity
6 | QVQLVESGGCLVQAGGTLRLSCDASGITFSRNTMGWYRQAPGKERELVAAITLRGGGRTYYADSVKGRFTISRDNAKNTDYLQLNSLNPEDTAVYYCARVYSSEKAYGYWGQGTQVTVSS | high polyreactivity
7 | QVQLVESGGDLVQAGGSLRLSCAASGITFVYNAMGWYRQAPGKESELVAGITWSGSSTYYADSVKGRFTISRDNAKNTVYFQMNSLKPEDTAVYYCAAYLYERTTRYRVYLQWKHGYWGQGTQVTVSS | high polyreactivity
8 | QVQLVESGGDLVQAGGSLRLSCAASGSIFYINAMGWYRQAPGKERELVASISYSGTSTYYADSVKGRFTISRDNAKNTVYLQMNSLKPEDTAVYYCNSEDTPGAGDGYWGQGTQVTVSS | low polyreactivity
9 | QVQLVESGGGCSGGRSLRLSCAASGLIFDDNAMGWYRQAPGKERELVAAITWSTSSTYYADSVKGRFTISRDNAKNNVYLQMNSLKREDTAVYYCNKRYKFRYYYWGQGTQVTVSS | low polyreactivity
10 | QVQLVESGGGFLQAGGSLRLSCAASGRIFNYYAMGWYRQAPGTERELVAGINWSGTRTYYADSVKGRFTISRDNAKNTVYLQMNSLKPEDTAVYYCNAGRTWRAFTGDEYWGQATQVTVSS | high polyreactivity
11 | QVQLVESGGGFVQAGCSLRLSCGASGLTFKTYAMGWYSQARGKERELVAAMSGTGGGTYYADSVKGRFTISRDNAKKTVYLQMNSQKPEDTEVYYCAALHQAYRGFDYWGQGTQVTVSS | high polyreactivity
12 | QVQLVESGGGFVQAGGSLRLSCAASGFIFDTYAMGWYRQAPGKERELVAAITTTGGSTYYADSVKGRFTISRDTAKNTVYLQMNSLKPEDTAVYYCAARHYRIHYDYWGQGSQVTVSS | high polyreactivity
13 | QVQLVESGGGFVQAGGSLRLSCAASGLTFVANAMGWYRQAPGTESEMVAGITQTGGSTYYADSVKGRFTISRDNAKNTVYLQMISLKPEDTAVYYCAATYRRLRYGKLYYYWGQGTQVTVSS | high polyreactivity
14 | QVQLVESGGGFVQAGGSLRLSCAASGNIFPYNAMGWYRQAPGKERELVAAISSGGSTNYADSVKGRFTISRDNAKNTVYLQLNSLQPEDTAVYYCAAARSGGYDYWGQGTQVTVSS | low polyreactivity
15 | QVQLVESGGGFVQAGGSLRLSCAASGRIFRYYTMGWYRKAPGKERELVAAISWTGASTYYADSVKGRFTISLDNAKNTLYLQMNSLKPEDTAVYYCAADSYIAHHGFAMDYWGQGTQVTVSS | low polyreactivity
16 | QVQLVESGGGFVQAGGSLRLSCAASGRTFLAMGWYRQAPGKERELVAAISRTNYADSVKGRFTISRDNAKNTVYLQMNSLKPEDTAVYYCNARRSYFLRYGVNYWGQGTQVTVSS | low polyreactivity
17 | QVQLVESGGGFVQAGGSLRLSCAASGRTYTLNAMRWYRQAPGKERELVAAITWGAGSTYYADSVKGRFTISRDNAKNTVYLQMNSLKPEDTAVYYCAARFHGAYYRYRSPSMYYWGQGTQVTVSS | high polyreactivity
18 | QVQLVESGGGFVQAGGSLRLSCAASGSICAGYAMGWYRQAPGKERVLVAGITIGGSTNYADSVKGRFTISRDNAKNTVYLQMNSLKPEDTAVYYCAARRVQSVYRIPRRYHSYGYWGQGTQVTVSS | high polyreactivity
19 | QVQLVESGGGFVQAGGSLRLSCAASGSIFVTYAKGWYRQAPGKERDLVAAIKYSGGSTYYADSVKGRFTISRDYAKNTVYLQMNSLKPEDTAVYYCAADERVDQGWIRMDYWGQGTQVTVSS | low polyreactivity
20 | QVQLVESGGGFVQAGGSLRLSCAASGSTFGPYAMGWSSQAPGKDRELVAGISSGGSTYYADSVKGRFTISRDNAKNTVYLQMNSLKPEDTAVYYCATRYLYRGYSYFAYDYWGQGTQVTVSS | low polyreactivity
21 | QVQLVESGGGFVQAGGSLRLSCAAYGSISVGYTMGWYIQAPGKEREFVAVITGTGGRTRYADSVKGRFTISRDNAKNTVYLQMNSLKPEDTAVYYCAAKIRWRGALYDYWGQGTQVTVSS | high polyreactivity

Row | Sequence | polyreactivity (PSR sort gate)
22 | QVQLVESGGGIDQAGGSLRLSCAASGNIFDYYAMGWYRQAPGKEREFVAAISWSGARTYYADSVKGRFTISRDNAKNTVYLQMNRLKPEDTAVYYCAGGQSWRKNDYRYDYWGQGTQVTVSS | high polyreactivity
23 | QVQLVESGGGIFQAGGSLRLSCAASGSTFDYNAMGWYRQAPGKERELVADITGSGASTSYADSVKGRFTISRDNEKNTVYLQMKILKPEDTAVYYCNADDSYFYELYGYWGQGTQVTVSS | low polyreactivity
24 | QVQLVESGGGIFQEGGSLRLSCAASGLIFRSYDMGWYRQAPGKERELVAAITDLFWSTYYADSVKGRFTISRDNAKNTVYLQMYSLKPEDTAVYYCARDDWVYTNVEMDYWGQVTQVTVSS | high polyreactivity
25 | QVQLVESGGGILQAGGSLRLSCAASGLTFPWYAMGWYRLAPGKERELVAAITHSDGNTYADSVKGRFTISRDKAKNTVYLQMNSLKPEDTAVYYCATDTRSQAYYYWGQGTQVTVSS | low polyreactivity
26 | QVQLVESGGGIVLAGGSLRLSCAASGSIYYANAMGWYRQAPGKERELVAVISSGGSTYYADSVNGRFTISRDNAKNTVYLHMNSLKPEDTAVYYCAAETYYYVLPHWYKYKYGYWGQGTQVTVSS | low polyreactivity
27 | QVQLVESGGGIVQAGCSLRIICAASGYTFGYYAMGSYRQAPGNERQFVAAITIDARTTYADSVKGRFTISRDKAKKTFYLQINSLKADDTAFYYCARGYFPYGYPWRWGYDRFDYWGQGTLVTVSS | low polyreactivity
28 | QVQLVESGGGIVQAGGSLGLSCGASGRTCRKFSMGWYSQAPGNAWEVVAAISSRGGSTYYADSVKGRFTSSRDNAKNTVYLQMNSLIPEDTAVYYCATDSIPPSSEGDYWGQGTQGTVSS | high polyreactivity
29 | QVQLVESGGGIVQAGGSLRISSSASGRIITAYAMGWYRQAPGKERELVAAITRSTTYYADSVKGRFTISRDNAKFSVDLQLHSLKPDDTAVFYCAADYRGTWYGYDYWGQGTHVTVSS | high polyreactivity
30 | QVQLVESGGGIVQAGGSLRLICAASGFIFEFNVMGWYRQSPGKERQLVAAISRSGGSTYYADSVKGRFTISRDNAKNTVYLQMISLKPEDSAVYYCAARSYRSGTHGYNYWGQGTQVTVSS | high polyreactivity
31 | QVQLVESGGGIVQAGGSLRLICAASGFTFSYYAMAWYRQAPGKEREFVAAITRSGSTYYADSVKGRFTISRENAKNTVYLQMISLKPEDTSVYYCAARFLYRYDYWGQGTQVTVSS | high polyreactivity
32 | QVQLVESGGGIVQAGGSLRLICAASGFTFWDYAMGWHRQAPGKERELVAAISWSGGSTYYADSVKGRFTISRDNAKNTVYLQMNSLKPEDTAVYYCNAVHYSRYVHPGHSMYYWGQGTQVTVSS | low polyreactivity
33 | QVQLVESGGGIVQAGGSLRLICAASGITFTVYAMGWDRTAPWKARELVAASCSSGSTTYADSVKGRFTFSRDNAKNTVYLQMNSVKPQDPAVYYCAAEGYYRFSTAYFRKKYEYWGQGTQVTVSS | low polyreactivity
34 | QVQLVESGGGIVQAGGSLRLICAASGRTFKYYAMGWYRQAPGKERELVAAIRSRTGSTYYADSVKGRFTISRDNAKNTVYLQMNSLKPVDTAVYYCAAQPGSYYGPRWYYDDDYWGQGTQVTVSS | high polyreactivity
35 | QVQLVESGGGIVQAGGSLRLICAASGSIFNGYALGWYRQAPGKERDLVAAISWRGGTTYYADSVKGRFSISRDTAKNTVYLQMNSLKPEDTAVYYCAARHFARMGYWGQGTQVTVSS | high polyreactivity
36 | QVQLVESGGGIVQAGGSLRLISAASGIIIDYYAMGWYRQAPGKERELVAAITSGGSTSYADSVKGRFTISRDNAKNTVYLQMNSLKAEDTAVYYCNTEPSGYESGYWGQGTLVTVSS | low polyreactivity
37 | QVQLVESGGGIVQAGGSLRLRCAASGLIFAYNAMGGDRQAPGKEREFVAAINSGGDSTYYADCVKGRFTISRDNAKNTVYLQMNSLKPEDTAVYYCAAVSGNKRYYYWGHGTQVTVSS | low polyreactivity
38 | QVQLVESGGGIVQAGGSLRLSCAASARIFGYNAMGWYRQAPGKERELVADITGSGGSTYYADSVKGRFTISRDNAKNTVYLQMNSLKPEDTAVYYCATPYAVYHVEYGYWGQGTQVTVSS | low polyreactivity
39 | QVQLVESGGGIVQAGGSLRLSCAASGFIFQRYVMGWYRQEPGKERQLVAAISSGGSTNYADSVKGRFTISRDNAKNTVYLQMNSLKAEDTAVYYFAADGFYYRNWGRFRYYYWGLGTQVTVSS | low polyreactivity
40 | QVQLVESGGGIVQAGGSLRLSCAASGFIIGYNAKGWYRQAPGKETELVAAITSRGVRTYYADCVKWRFTISRDNAKNTVYLQMNSLKPEDTAVYYCAKASRGYRSPYGSIGYYYWGQGTQVTVSS | high polyreactivity
41 | QVQLVESGGGIVQAGGSLRLSCAASGFIISPNAMGWYRHAPGKEREFVAAIRYSGTSTSYADSVKGRFTISRDNGKNTVYLQMNSLKPEDTAVYYCAAQYRQRTGMYYWGQGSQVTVSS | high polyreactivity
